This assay addresses JR-CSF gp120 N276A (HIV-1) (UniProt P20871). As to the kind of experiment: cell-based or functional assay.

Regarding VRC01 (antibody), the increase in neutralization potency came out at 4 fold.
